From paper PMC4995099, “Drosophila Nanos acts as a molecular clamp that modulates the RNA-binding and repression activities of Pumilio”

Columns and labels:
[1] = molecular target: T1, Pum PUM-HD WT (EMSA);Nos ZC WT (EMSA) (Drosophila melanogaster?;Drosophila …, UniProt P25822;P25724 1091-1426;289-401, |); test: EMSA; Nos ZC titrated at 100 nM Pum; high affinity, Kd only in figure; EMSA: 50 mM Tris-HCl pH 7.6, 150 mM NaCl, 2 mM DTT, 2 ug/mL BSA, 0.01% Igepal CA-630, 0.02% bromophenol blue, 20% glycerol, 3 h at 4 C; 1 nM Cy5 RNA or 0.3 nM 32P RNA; details: protein: recombinant;recombinant, tags: N-terminal 3xFLAG, Halo-tag removed by TEV;C-terminal V5, copies: 1;1, label: 5' Cy5
T1 sequence 1: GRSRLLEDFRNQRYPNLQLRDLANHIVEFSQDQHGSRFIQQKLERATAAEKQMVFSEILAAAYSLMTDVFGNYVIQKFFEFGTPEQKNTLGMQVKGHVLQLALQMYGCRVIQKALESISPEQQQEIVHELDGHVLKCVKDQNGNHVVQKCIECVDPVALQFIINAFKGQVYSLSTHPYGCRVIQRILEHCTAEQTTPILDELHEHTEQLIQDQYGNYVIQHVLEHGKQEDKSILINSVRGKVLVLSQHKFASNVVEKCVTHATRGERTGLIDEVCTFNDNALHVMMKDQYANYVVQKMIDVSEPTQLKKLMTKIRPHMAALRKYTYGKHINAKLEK
T1 sequence 2: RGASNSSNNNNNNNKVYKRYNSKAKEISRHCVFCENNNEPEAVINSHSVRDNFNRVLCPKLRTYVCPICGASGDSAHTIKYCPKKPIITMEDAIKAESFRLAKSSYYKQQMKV

[2] = molecular target: T2, Nos ZC WT (EMSA) (UniProt P25724 289-401); test: EMSA; up to 1 uM Nos ZC; EMSA: 50 mM Tris-HCl pH 7.6, 150 mM NaCl, 2 mM DTT, 2 ug/mL BSA, 0.01% Igepal CA-630, 0.02% bromophenol blue, 20% glycerol, 3 h at 4 C; 1 nM Cy5 RNA or 0.3 nM 32P RNA; details: protein: recombinant; tags: C-terminal V5; Halo-tag removed by TEV; label: 5' Cy5
T2 sequence: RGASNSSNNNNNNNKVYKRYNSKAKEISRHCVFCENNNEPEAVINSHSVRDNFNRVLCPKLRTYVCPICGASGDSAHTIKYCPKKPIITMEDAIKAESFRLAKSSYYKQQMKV

[3] = molecular target: T3, Pum Q1337A (UniProt P25822 1091-1426, Q1337A); test: EMSA; RNA label form not stated; EMSA: 50 mM Tris-HCl pH 7.6, 150 mM NaCl, 2 mM DTT, 2 ug/mL BSA, 0.01% Igepal CA-630, 0.02% bromophenol blue, 20% glycerol, 3 h at 4 C; 1 nM Cy5 RNA or 0.3 nM 32P RNA; details: protein: recombinant; tags: N-terminal 3xFLAG; Halo-tag removed by TEV; label: 5' Cy5
T3 sequence: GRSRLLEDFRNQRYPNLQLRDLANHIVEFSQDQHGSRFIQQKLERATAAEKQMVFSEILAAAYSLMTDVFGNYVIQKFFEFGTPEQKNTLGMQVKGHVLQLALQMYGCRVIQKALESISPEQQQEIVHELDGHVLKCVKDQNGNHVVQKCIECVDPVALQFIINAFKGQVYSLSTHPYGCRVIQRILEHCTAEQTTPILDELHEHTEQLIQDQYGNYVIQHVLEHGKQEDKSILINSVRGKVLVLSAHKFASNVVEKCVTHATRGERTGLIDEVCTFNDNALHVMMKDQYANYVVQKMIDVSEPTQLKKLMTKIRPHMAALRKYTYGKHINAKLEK

[4] = molecular target: T4, Pum F1367S (UniProt P25822 1091-1426, F1367S); test: as above; details: protein: recombinant; tags: N-terminal 3xFLAG; Halo-tag removed by TEV; label: 5' Cy5
T4 sequence: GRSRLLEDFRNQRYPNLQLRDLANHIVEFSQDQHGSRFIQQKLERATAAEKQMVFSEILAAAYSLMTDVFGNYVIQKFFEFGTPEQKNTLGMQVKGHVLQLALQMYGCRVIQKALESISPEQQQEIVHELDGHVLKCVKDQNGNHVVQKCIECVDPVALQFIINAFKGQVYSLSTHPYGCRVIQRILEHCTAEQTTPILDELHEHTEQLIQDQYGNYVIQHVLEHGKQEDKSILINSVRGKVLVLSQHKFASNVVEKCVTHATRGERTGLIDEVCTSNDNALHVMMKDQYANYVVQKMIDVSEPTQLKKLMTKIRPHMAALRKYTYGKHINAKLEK

[5] = molecular target: T5, Pum PUM-HD WT (EMSA) (UniProt P25822 1091-1426); test: EMSA; EMSA: 50 mM Tris-HCl pH 7.6, 150 mM NaCl, 2 mM DTT, 2 ug/mL BSA, 0.01% Igepal CA-630, 0.02% bromophenol blue, 20% glycerol, 3 h at 4 C; 1 nM Cy5 RNA or 0.3 nM 32P RNA; details: protein: recombinant; tags: N-terminal 3xFLAG; Halo-tag removed by TEV; label: 5' Cy5
T5 sequence: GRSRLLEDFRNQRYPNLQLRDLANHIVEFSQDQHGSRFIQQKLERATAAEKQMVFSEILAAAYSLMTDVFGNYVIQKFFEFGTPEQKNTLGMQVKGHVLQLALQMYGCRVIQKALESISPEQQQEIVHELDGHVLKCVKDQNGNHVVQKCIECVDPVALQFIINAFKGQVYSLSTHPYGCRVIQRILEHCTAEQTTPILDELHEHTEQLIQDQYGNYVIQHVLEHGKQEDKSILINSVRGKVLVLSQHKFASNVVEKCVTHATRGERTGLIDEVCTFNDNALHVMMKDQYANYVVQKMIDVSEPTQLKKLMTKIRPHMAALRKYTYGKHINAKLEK

Binder: UUGUUGUCGAAAAUUGUACAUAAGCC (ssRNA) [Cy5-hb NRE2 RNA]
- binding result [1]: binds
- binding result [2]: no binding
- binding result [3]: binds
- binding result [4]: binds
- binding result [5]: binds
